Patent US20210009714A1 (Regeneron, published 2021)

What was measured:
[1] = molecular target: T1, Tie2 (UniProt Q02763 23-748, limits assumed); assay: BIAcore
T1 construct: also called Tie2 receptor

[2] = molecular target: IgG1 Fc/Fc* bispecific antibody; assay: flow cytometry sandwich: antibody displayed on cells by CSCP FcγR, labeled Ab2 as detection molecule
[3] = molecular target: IgG1 Fc/Fc monospecific antibody; assay: as above
[4] = molecular target: IgG4 Fc/Fc* bispecific antibody; assay: as above
[5] = molecular target: IgG4 Fc*/Fc* monospecific antibody; assay: as above
[6] = molecular target: IgG4 Fc/Fc monospecific antibody; assay: as above
[7] = molecular target: T2, human Fc* homodimer (human); assay: SPR (Biacore 2000); mAb captured on anti-mouse-Fc surface, Fc dimer injected; 1:1 fit
T2 construct: also called Fc*/Fc*; human ΔAdpFc polypeptide
Method: Measurements to determine binding affinities and kinetic constants were made on a Biacore 2000 instrument. […] Kinetic association (kₐ) and dissociation (kd) rate constants were determined by processing and fitting the data to a 1:1 binding model using Scrubber 2.0 curve fitting software.

[8] = molecular target: IgG1 Fc/Fc* bispecific antibody; assay: flow cytometry sandwich: antibody displayed on cells by CSCP FcγR, labeled Ab6 as detection molecule
[9] = molecular target: IgG1 Fc*/Fc* monospecific antibody; assay: as above
[10] = molecular target: IgG1 Fc/Fc monospecific antibody; assay: as above
[11] = molecular target: IgG1 Fc/Fc* bispecific antibody; assay: flow cytometry sandwich: antibody displayed on cells by CSCP ScFv-FcγR, hFc block, FITC-labeled Ab6 as detection molecule
[12] = molecular target: IgG1 Fc/Fc monospecific antibody; assay: as above
[13] = molecular target: IgG4 Fc/Fc* bispecific antibody; assay: as above
[14] = molecular target: IgG4 Fc/Fc monospecific antibody; assay: as above

T1 sequence (Q02763 23-748 limits assumed): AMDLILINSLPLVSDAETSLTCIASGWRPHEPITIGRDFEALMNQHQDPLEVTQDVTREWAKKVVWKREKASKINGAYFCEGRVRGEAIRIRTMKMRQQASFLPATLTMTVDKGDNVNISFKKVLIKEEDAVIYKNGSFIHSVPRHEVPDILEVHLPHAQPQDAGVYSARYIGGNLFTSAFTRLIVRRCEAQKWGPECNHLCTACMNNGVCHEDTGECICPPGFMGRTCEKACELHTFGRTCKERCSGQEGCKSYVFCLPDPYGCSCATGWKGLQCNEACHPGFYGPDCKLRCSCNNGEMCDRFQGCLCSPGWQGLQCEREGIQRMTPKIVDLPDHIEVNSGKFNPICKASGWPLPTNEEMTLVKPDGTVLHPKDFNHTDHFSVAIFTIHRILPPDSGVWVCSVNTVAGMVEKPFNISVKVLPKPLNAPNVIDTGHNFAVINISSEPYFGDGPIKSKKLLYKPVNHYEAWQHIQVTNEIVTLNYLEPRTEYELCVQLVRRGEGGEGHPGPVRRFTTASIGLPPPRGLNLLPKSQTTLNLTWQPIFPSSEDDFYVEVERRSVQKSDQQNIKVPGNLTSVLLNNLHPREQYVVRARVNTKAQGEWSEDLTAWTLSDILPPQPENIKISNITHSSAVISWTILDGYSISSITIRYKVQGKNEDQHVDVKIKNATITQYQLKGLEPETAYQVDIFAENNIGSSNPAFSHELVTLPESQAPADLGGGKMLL

B1: FD1-hFc (Fc fusion, UniProt Q15389 277-498, looked up)
chain: REEEKPFRDCADVYQAGFNKSGIYTIYINNMPEPKKVFCNMDVNGGGWTVIQHREDGSLDFQRGWKEYKMGFGNPSGEYWLGNEFIFAITSQRQYMLRIELMDWEGNRAYSQYDRFHIGNEKQNYRLYLKGHTGTAGKQSSLILHGADFSTKDADNDNCMCKCALMLTGGWWFDACGPSNLNGMFYTAGQNHGKLNGIKWHYFKGPSYSLRSTTMMIRPLDF
notes: also called FD1-Fc; not shown: hFc
[1]
  Kd: 174 nM

B2: Ab2 (antibody, V domains shown)
VH: QLQQSGAELAKPGASVKMSCKASGYTFTNYWIHWEKQRPEQGLEWIGYINPNTGHTEYNQKFKDKATLTADRSSSTAYMQLSSLTSEDSAVYFCARTYSGSSHFDYWGQGTTL
VL: DIVMTQTPVSLPVSLGDQASISCRSSQSLVHNNGDTFLHWYLQKPGQSPKLLIYKVSNRFSGVPDRFSGSGSGTDFTLKISRVEAEDLGVYFCSQTTLIPRTFGGGTKLEI
notes: Monoclonal from Velocimmune mice, captured on an anti-mouse-Fc surface in the SPR study; also called Fc-specific Ab2; Ab2 anti-Fc antibody
[2]
  MFI: 500
[3]
  MFI: 350
[4]
  MFI: 200
[5]
  MFI: 200
[6]
  MFI: 200

B3: Ab6 (antibody, mouse IgG2a, kappa, V domains shown)
VH: EVQLVESGGAIVKPGGSHRVSCEASGFTFSNAWMSWVRQAPGRGLEWVGRILSKTDGGTTDYAAPVKDRFTISRDDSKNMLFLQMDSLKIEDTAVYFCTTADFWSAYSSDYWGQGTLVTVSS
VL: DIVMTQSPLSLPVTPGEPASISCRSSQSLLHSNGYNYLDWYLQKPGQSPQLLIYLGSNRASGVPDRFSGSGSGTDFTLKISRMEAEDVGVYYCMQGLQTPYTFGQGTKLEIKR
notes: also called Fc*-specific Ab6; Ab6 anti-Fc* antibody
[7]
  t1/2: 19 min
[8]
  MFI: 200
[9]
  MFI: 200
[10]
  MFI: 200
[11]
  MFI: 500
[12]
  MFI: 15
[13]
  MFI: 500
[14]
  MFI: 15
